Measured values as given in the supplement of paper PMC9170038.

Tested on: MS2 coat protein
Test: apparent KD of MS2 coat protein; designed switch direction (-1 OFF switch, 1 ON switch): -1; higher = weaker reporter binding
In short: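 An oligonucleotide input, 200 uM small-molecule ligand, or no input was present during titration of SNAP-549-labelled MS2 coat protein, which was doubled from 0.7 or 1.5 nM to 3 µM. Designed RNA switches had been transcribed on Illumina chips by stalled E. coli RNA polymerase. Apparent KD per design is the median over clusters of curves fitted to normalised cluster fluorescence.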

[1] = input ligand: microRNA oligo, concentration not stated
[2] = Eterna round: R95, input ligand: microRNA oligo, concentration not stated
[3] = Eterna round: R95, input ligand: FMN 200 uM
[4] = Eterna round: R95, input ligand: none

| Sequence | apparent KD of MS2 coat protein (input ligand: FMN 200 uM) [nM] | apparent KD of MS2 coat protein (input ligand: none) [nM] | apparent KD of MS2 coat protein [1] [nM] | apparent KD of MS2 coat protein [2] [nM] | apparent KD of MS2 coat protein [3] [nM] | apparent KD of MS2 coat protein [4] [nM] |
| --- | --- | --- | --- | --- | --- | --- |
| UCACCGCAAGGAUAUACUUGCGGUGAUGCUCGAAAUCUUCUACUUGAGGAUCACCCAAGUAGAAGGUGCGGUGA [jl-ex2.4.67 ViennaUCT mod] (Eterna round: R97, puzzle: Exclusion 2) | 13 | 12.1 | – | – | – | – |
| AAGAUGUAAGGAUAUGCUGCUCGUCACAAAAGUGAUGAGUAGCAGAAGGUACAUGAGGAUCACCCAUGUAGAGA [Opal 38] (Eterna round: R96, puzzle: Exclusion 4) | 60.6 | 22.7 | 18.2 | – | – | – |
| GUGUAGCAAGGAUAUACAUGAGGAUCACCCAUGUGAAUAAGAUAGAAUAAGAUAAAGUGUAGAAGGUGUAGUGU [Excluse me!!! 10 - Jieux - Exclusion 3] (puzzle: Exclusion 3) | – | – | – | 37.2 | – | – |
| AAUAAGCUAGGAUAUACAUGAGGAUCACCCAUGUAUGACGAUACAGAAUCUGGCCCGAGUAGAAGGAGCAAACU [EX3 B.7] (Eterna round: R97, puzzle: Exclusion 3) | 23.2 | 17.4 | – | – | – | – |
| CCGGAAAGGAAGGAUAUGCUUGACGAAAGUCAAGCAGAAGGUCCUACAUGAGGAUCACCCAUGUGGCCUCCCGG [Mat - Exclusion 6 - Eli Mod - D48] (Eterna round: R97, puzzle: Exclusion 6) | 737 | 128 | – | – | – | – |
| GAUUAUGCGAGCUUUAGGGACAUGAGGAUCACCCAUGUUCGUCUUAUUGAUCUAGAUGCACUAACAUACCUAAAUCU [JMF 25] (puzzle: Sensor v3, turn-off variant 1) | – | – | – | 25.1 | 19.7 | 20.1 |
| UACAUGAGGAUCACCCAUGUUUUGUCGUGUAUGGUAUUUAUCUAGGAUAUCAAUUGAUUUAAUUAUGAGAAGGAGAAUAUUAAU [JMF's solution 61] (Eterna round: R96, puzzle: Exclusion NG 3) | – | – | 29.3 | – | – | – |
| AGAUCUAGGACAGGAUAUAUGGAUGUCUUCAUCGAAGAUGAAGACAUCACAUGAGGAUCACCCAUGUAGAAGGGUCCUAGAUCA [Omei Exc(NG) 2Av2] (Eterna round: R96, puzzle: Exclusion NG 2) | 11.9 | 15.6 | 13.5 | – | – | – |
| AAACAGGGAGGAUAUACAUAGAUCGUCUAACCUAAUUGGUCACAUGAGGAUCACCCAUGUAGAAGGCCCUUAGG [Tiisdixe] (puzzle: Exclusion 2) | – | – | – | 22.2 | – | – |
| ACUUAUUGAGGAUAUACAUAAAUUUACAUGAGGAUCACCCAUGUUCUUCUAUGUAUAUAUGUAGAAGGCAGAAGAA [JL-ex5-4.31 Malcolm mod] (Eterna round: R97, puzzle: Exclusion 5) | 27 | 18.5 | – | – | – | – |
| GCUGGUCGAGGAUAUACAUGAGGAUCACCCAUGUAGAUCAACCAGCGAUAGCUGGAAUGUAGAAGGCGACCAGC [E3/5-A1] (Eterna round: R97, puzzle: Exclusion 3) | 125 | 22.9 | – | – | – | – |
| GUAGUUCGAGUUAGGAUAUGAUUAAAAUUCGGAUAUCAGAAGGAACUUGAGGAUCACCCAAGUAUAGAUGAUUC [JR_BMEx4_Sub058] (Eterna round: R97, puzzle: Brourd's mod of Exclusion 4) | 91.6 | 38.1 | – | – | – | – |
| ACAUUGUGAGGAUAUCCGAAGAAGGUCCGGAAGGUUCGGGUGGAGAAGGCACAUGAGGAUCACCCAUGUGUGGG [Excls4-VIII] (puzzle: Exclusion 4) | – | – | – | 39.3 | – | – |
| AAGAUUAGGAAAGGAUAUAAAGAGAAACAAAGUGCACAUGAGGAUCACCCAUGUACUGACACGCGUUAGAAGGUUCCAGUCCUC [Eternabot solution 40] (Eterna round: R96, puzzle: Exclusion NG 2) | 18.1 | 25.4 | 15.5 | – | – | – |
| AUUAGUAUCUAGGAUAUCUAGUACAUAGUAUCUAGAGAAGGAGAUACAUGAGGAUCACCCAUGUUCUGUGUUCU [Exclusion 6 - 1:d] (puzzle: Exclusion 6) | – | – | – | 20.3 | – | – |
| GAUUAUGCGAGCUUUAGGGACAUGAGGAUCACCCAUGUUCGUCUUAUUAAUCUGGGUACACUGACAUACCUAAAUCU [JMF 69] (puzzle: Sensor v3, turn-off variant 1) | – | – | – | 48.4 | 32.1 | 33.9 |
| GGGCUGCGACGCAGCCAAACAAAACAUGAGGAUCACCCAUGUCAGGAUAUACCGAUGCAGCAUCUGUAGAAGGGACAGAUCCAA [Onlaorre] (Eterna round: R96, puzzle: Exclusion NG 3) | 145 | 73.3 | 63.5 | – | – | – |
| UGAGUACUGCGAGGAUAUACAUGAGGAUCACCCAUGUAAUAGUGUGAGGCUUUGCCUCACACAAUGUAGAAGGCGCAGUACUCU [Mat - Exclusion NG 2 - Mod of JL - D5] (Eterna round: R96, puzzle: Exclusion NG 2) | 15.5 | 11.8 | 9.63 | – | – | – |

| Sequence | apparent KD of MS2 coat protein (input ligand: FMN 200 uM) [nM] | apparent KD of MS2 coat protein (input ligand: none) [nM] | apparent KD of MS2 coat protein [1] [nM] | apparent KD of MS2 coat protein [2] [nM] | apparent KD of MS2 coat protein [3] [nM] | apparent KD of MS2 coat protein [4] [nM] |
| --- | --- | --- | --- | --- | --- | --- |
| GAGUGCUUAGGAUAUACAUGAGGAUCACCCAUGUGCUUCAGCUAGGAGACUAGCAUUGGUAGAAGGGAGUACUC [Mod of lroppy 5 - Jieux - Exclusion 3] (Eterna round: R97, puzzle: Exclusion 3) | 24.2 | 14.9 | – | – | – | – |
| AGAUCACAUGAGGAUCACCCAUGUCAGGAUAUGAUACUAUGUACUUCGGUACAUAGUAUCAGAAGGGAUAUGAA [Ex1-3: 67] (puzzle: Exclusion 1) | – | – | – | 109 | – | – |
| UCGACCGGAGGAUAUCACGUAAAGUACAUGAGGAUCACCCAUGUGUGAUGACUCGAGUCGUGAGAAGGCCGAUAUG [Larausbeer] (puzzle: Exclusion 5) | – | – | – | 65.8 | – | – |
| AAGAAAGAGUUAGGAUAUACAUGAGGAUCACCCAUGUGGUGGUAAAUCCGCUGGGUCGGUUCGAUGUAGAAGGAACAACCGCCG [Inisinlaon] (Eterna round: R96, puzzle: Exclusion NG 2) | 281 | 68.3 | 18.7 | – | – | – |
| CGAUGCUCGUGUCCACAUGAGGAUCACCCAUGUCGAGUUAGCGAGGAUAUCGGUAGCACAUAGCACGAGAAGGCGCGAACCUGA [Ex NG3 #28] (Eterna round: R96, puzzle: Exclusion NG 3) | 58.4 | 22 | 15.9 | – | – | – |
| AUUUUGUCAGGAUAUGAGUAGUAGGACGAAAGUGCUACUACUUAGAAGGGACAUGAGGAUCACCCAUGUCUUCC [Bring Us a Shrubbery-05] (puzzle: Exclusion 4) | – | – | – | 13.5 | – | – |
| AAGGGUACUUUCGGAACGACAUGAGGAUCACCCAUGUAUACUGAGGAUAUCCACUACUAAGGACGGGAGAAGGCAGUGUAAUGU [Ex NG3 #78] (Eterna round: R96, puzzle: Exclusion NG 3) | 18.8 | 18.5 | 13.6 | – | – | – |
| GAAAAGUGAGGAUAUGGUAAAAAAAAAAGAAAAAAAAAACUCCAGAAGGCACAUGAGGAUCACCCAUGUAAAAG [salish99_ex4_r3_003] (puzzle: Exclusion 4) | – | – | – | 19.5 | 41.9 | 58.6 |
| GAUCCUUUGACGGACGUCUCGAAACAUGAGGAUCACCCAUGUGAGGAUAUCUCCGAGAGGUCGGCAGAGAAGGCACAUGAACAA [MOD3 Eternabot solution 19 score 84.66] (Eterna round: R96, puzzle: Exclusion NG 3) | 123 | 19.8 | 16.5 | – | – | – |
| CUUCACCCACUAGAGCUCACCCACAAACCUACUCUAGUGACAUGAGGAUCACCCAUGUUUUUUGCCCGUCUUAUCUU [Qugeenerce] (puzzle: Sensor v3, turn-off variant 2) | – | – | – | 184 | 40.2 | 41.4 |
| AUACCACGAGGAUAUCGUCUAUUUUACAUGAGGAUCACCCAUGUUAUCUUUGUUUUGUUUCGAGAAGGCGUGUUUU [JR_E5_Sub079] (puzzle: Exclusion 5) | – | – | – | 24.6 | – | – |
| AAGAAUCGCAAUACGAAUAAGCAAUACGAACAAUAGCAAACAUGAGGAUCACCCAUGUCAAGGGUGACAACGCUCUA [JR_Sensorv2_tov2_Sub107] (Eterna round: R96, puzzle: Sensor v2, turn-off variant 2) | 173 | 862 | 61.2 | – | – | – |
| AUGUGACAUGAGGAUCACCCAUGUCAGGAUAUUUCCAAAAUAAAAUAAAACCGCGUGGAAAGAAGGGACGUGGC [EX1 A.4] (Eterna round: R97, puzzle: Exclusion 1) | 27.4 | 21.9 | – | – | – | – |
| UAACUACAUGAGGAUCACCCAUGUCAGGAUAUGCCGUUAAAUUAACAUCAACAUACGGGUAGAAGGGACAGCGU [1st #4] (Eterna round: R97, puzzle: Exclusion 1) | 30 | 29.2 | – | – | – | – |
| AAACGUAGACAGGAUAUCUGCGCCCUUGGUUAAAGAGAAGGGUCUACAUGAGGAUCACCCAUGUGGUGUAACUC [Dibedididi] (puzzle: Exclusion 6) | – | – | – | 18.4 | 13.8 | 23.6 |
| AGUACUAACUCGAAAGUGUUAGUACAAUAAGCUUGUGAAACAUGAGGAUCACCCAUGUCCUCAUAAGCUCGUCUUAU [salish99_TOv2_r3_022] (puzzle: Sensor v3, turn-off variant 2) | – | – | – | 739 | 15.7 | 15.3 |
| UGAAGUUGUGUGAGGAUAUUUGAAGUGAAAGCUUCGGAGAAGGCACAUGAGGAUCACCCAUGUAAGCGGCUUCG [-25.1, -23 kcal, A 26%, 3bis-3] (Eterna round: R97, puzzle: Brourd's mod of Exclusion 4) | 18.4 | 15 | – | – | – | – |
